# Data taken from the DeepSol protein solubility set.
# Assay: soluble on expression in E. coli; label from the status in PepcDB or PDB records
row,Sequence,soluble on expression in E. coli
1,MKIVYWSGTGNTEKMAELIAKGIIESGKDVNTINVSDVNIDELLNEDILILGCSAMADEVLEESEFEPFIEEISTKISGKKVALFGSYGWGDGKWMRDFEERMNGYGCVVVETPLIVQNEPDEAEQDCIEFGKKIANI,soluble
2,MKKDQYFNLEVNFLSNDNIVRMMMELDAAQSLGIYMMLLTHLRKADNYEASCCPLCMGAFARMYDLDAGVLQRVLREFDLFVLDEERQMFRSPYLDRVMARLEERRMINVANGKKGGRPKRMESTPETPMDKGEKPNQNQKSREEERRVTTVVKDNNSSNEEKTEKENSAAASDRLQIVSPPEDRGQLPLQPVLPWEMLVDQMAESESYMESMAMHSCMGKLFVERQEEVIAAFKEHIRRFGREDGLLFLRDVKLYFGNYLSPGGRPAQELKKRLLGSCRQSAEEELYRFEQLIGGQRTYLGHPIPKDAPPRPDRSAVWDEVHWKWGN,not soluble
3,MKKEKAIVVFSGGQDSTTCLLWALKEFEEVETVTFHYNQRHSQEVEVAKSIAEKLGVKNHLLDMSLLNQLAPNALTRNDIEIEVKDGELPSTFVPGRNLVFLSFASILAYQIGARHIITGVCETDFSGYPDCRDEFVKSCNVTVNLAMEKPFVIHTPLMWLNKAETWKLADELGALDFVKNNTLTCYNGIIADGCGECPACHLRSKGYEEYMVMKGERA,soluble
4,MKKEKDLSVAVLIDGDNASSEKMEDVMRFVSRYGAAVVRRIYGDWTKKSLSGWKDAARDYSFRMVQASSFVPGKNTTDIALVMDAMDILHEGRVGCFCLVASDGDYTLLAQRIRESGLTVLGYGEGKTPAALVRSCTEFLLADRKEEKPFQENTPEFFIQRDMEYFDKAFEQAADGKAEVSLSLIGGVLKKLMPKFKVKRYGCRTLGKLYERLEKYELVKTGKGVAGLVRIKS,not soluble
5,MKKFLALLLSVIIVFSLTACGGKNSGNNSNNSSNNNSSNNTGGKKIKIGMVTDVGGVNDGSFNQSAWEGLQRAQKELGVEVRYAESATDADYAPNIEAFIDEGYDLIICVGYMLADATRKAAEANPNQKFAIIDDASIDLPNVTCLMFEQSQASYLVGLVAGKMTKTNKVGFVVGMVSQTMNEFGYGYLAGVKDANPNATILQFNANSFSSTETGKSAATTMITNGADVIFHAAGGTGLGVIEGCKDAGKWAIGVDSDQSPLAPENILTSAMKRVDNACFDIAKAVKEGNVKPGIITYDLKSAGVDIAPTTTNLPKEVLDYVNQAKQDIINGKITVPKTKAEFEAKYGNIYELDD,soluble
6,MKKGSRHNFVVSQENWTLHRKGYQDQRRHQEKVKEAIRKNLPDLVSEENIIMSNGREVIKIPIRSLDEYKIRYNYDKNKHVGQGDGDSQVGDVIARDPSAGQQGPGKGQGAGDQPGEDYFEAEVSILELEELLFRELELPNLQQKEEDHLVVEHIEFNDIRKKGLMGNIDKRRTILSAIKRNALEGRPGLIPIYNDDLRFKTWNEVVRPESKAVVLAMMDTSGSMGRWEKYMARSFFFWMTRFLRTKYETVDIEFIAHHTEAKVVSEEDFFSKGESGGTICSSAYRKALELINEKYDPARYNIYPFHFSDGDNLTSDNARCLKLVHELMESSSMFGYGEVNQYSRHSTLMNAYKNLKDPRFRSYVLKEKGDVYRAMKTFFKKEEEAVSAAALEHHHHHH,soluble
7,MKKGVLIAFEGIDGSGKSSQATLLKDWIELKRDVYLTEWNSSDWIHDIIKEAKKKDLLTPLTFSLIHATDFSDRYERYILPMLKSGFIVISDRYIYTAYARDSVRGVDIDWVKKLYSFAIKPDITFYIRVSPDIALERIKKSKRKIKPQEAGADIFPGLSPEEGFLKYQGLITEVYDKLVKDENFIVIDGTKTPKEIQIQIRKFVGELIDNSF,soluble
8,MKKHIALIFTPINKKYKDALTHYAPPLGLVALANYISERLQNVRISILDGSVTHSMEDIIKFIEDEKPDIVAQSVQLISYENSLVIAKSAHNIGSINVLGGQHATQMADAIIFRQQGLIDYVSIEDGEESLLGLLEERDISEIPNLVFMKDGKINRTKYFQLDLKNAPKLDYSIVDFKPYQKLLNESNFTNPNPINNYLRVYSHKGCGNRKNSVGCVFCGRADKGVRFKSPEKFWEDIKICADEFKADYIFDVGDDFLYNHDWVSKVAEIKPDIRKKFELGIFARANRVNLSIAKKLKKIGVTDVVIGFESGDEEVLRRCNKRDTSTETSLIAADALATAGIDITASFVLGLPGENSESLKKTIKCAEKVVNIITEKLGRPPREMVGNLIEPSPGSIAYNQLLKAYPGKYYLNDYVPLDEMQRDYFKYYFGLDSLKSYLEFRKELNKAAQEIHGLVSFSDSQGWLEDEFV,not soluble
9,MKKIHYTDNYLLKPYHPVTIHVAGAGGTGSQVITNLARMNVALQALGHPGLHVTVFDPDIITEANIGRQLFSEMELGQGKATAAVTRVNRFFGTTWTAENCRYPVRKTQENGDDRTKPANIIITCTDNTRSRLELWRFLKKYRETSVNNERAVYYWMDFGNAQTTGQVFIGTVRNKIRQPASKEFMPVPGMNVITEEVNYSTIEEKDSEPSCSLAEALERQDLYINSILAQVGCDILWRMFKEGRTLYRGAYINLDTLRVNPIPV,not soluble
10,MKKIILTIGCPGSGKSTWAREFIAKNPGFYNINRDDYRQSIMAHEERDEYKYTKKKEGIVTGMQFDTAKSILYGGDSVKGVIISDTNLNPERRLAWETFAKEYGWKVEHKVFDVPWTELVKRNSKRGTKAVPIDVLRSMYKSMREYLGLPVYNGTPGKPKAVIFDVDGTLAKMNGRGPYDLEKCDTDVINPMVVELSKMYALMGYQIVVVSGRESGTKEDPTKYYRMTRKWVEDIAGVPLVMQCQREQGDTRKDDVVKEEIFWKHIAPHFDVKLAIDDRTQVVEMWRRIGVECWQVASGDF,soluble
11,MKKIQTPNAKGEVRIIAGLWRGRKLPVLNSEGLRPTGDRVKETLFNWLMPYIHQSECLDGFAGSGSLGFEALSRQAKKVTFLELDKTVANQLKKNLQTLKCSSEQAEVINQSSLDFLKQPQNQPHFDVVFLDPPFHFNLAEQAISLLCENNWLKPNALIYVETEKDKPLITPENWTLLKEKTTGIVSYRLYQNLEHHHHHH,soluble
12,MKKLAIAGALLLLAGCAEVENYNNVVKTPAPDWLAGYWQTKGPQRALVSPEAIGSLIVTKEGDTLDCRQWQRVIAVPGKLTLMSDDLTNVTVKRELYEVERDGNTIEYDGMTMERVDRPTAECAAALDKAPLPTPLPLEHHHHHH,soluble
13,MKKLEVKDLKENFFEAIGKEWMLVTAGTKEKFNTMTASWGGIGWLWNKPVAFVFVRPERYTYEFIEKSDYLTLSFLGEANKKIHAVCGSKSGRDTDKVKATGLKPVFTEQGNVLFEQARLSLEGRKLYADNIKPECFLDKESLEKWYDDAHGGFHKMYIVEIENIWEGD,not soluble
14,MKKLKMKKLISLLLTLTMILALTACGAKETGKSQDESDLNYVKSKGKLIIGYTNYAPMNYTDENGVFTGFDTELAILTCEKLGVEPEFVEINWDTKEVELNAKSIDCIWNGLTIDDDRKAKMEITQPYVKNAQVVLVKEGTEYNGTESLIGKTVVAEQSSAGEKTIMADENLKKANYVPKTLQTDCLMELKSGTADAAVLDLTLAKTMTGEGTSYEDIVIVDYLAEENYGVAFRKGSDICAEVNKIFDDFLADGTMAALAEKYGLELAE,not soluble
15,MKKLTKGLGILLASSLVLGLAACGGGSDDKALSTEKITIGTTAGPHQQIAEEVQKLAKKDGLEIKIKTFDDYNTPNTALNDGDLDANNYQTIPFLEQQKKDKGYKLDVAFKTVAFPMGIYSNDIKDLKNLKKGDKIAVPNDPSNEYRGLKLFEDAGVIKLKDGVEEKATKKDIAENPLDLEIVELEASQIPAQLDEVAAAAINTNFAMGAGLSINKDAIYHEPTKDNPYPNVFVVRSANKDDEVVKTLEKYYHSDEVKAFIEKEFNGSVVPAFLEHHHHHH,soluble
16,MKKMLTFLTTCALSFGVSAQSWEETTEKARGQTVYFHAWGGSQEINSYLRWSADLLKSRYGVTLQHVKVTDIAETTTRLIAEKAAGKNEQGSVDLVWINGENFKSMKNNQLLYGPFVEDLPNWPKVDKSLPVDSDFSEPTEGLEAPWGVGQLVFIHDKQQVNNPPASFAELLSYAQAFPNRISYPQPPEFHGTSFLKAALIELTHYAPELNQAVEPATFEQLTQPLWQYLDELHAVAWRKGKQFPAGSAQMMQLLDDGQLDLAITFNPNAVFSAQATGKLAPTAQSYAMKKGALTNIHFLAIPWNANAKEGALVAINFLLSDEAQSRKGDLSIWGDPSILKPQFLTGSAKNTILFPAIAEPHPSWQSALEAEWQKRYGNSLK,not soluble
17,MKKSLKQKIVSSLLAVSLAVSLAPIGQANADSTSEIKQTSSITKQVDASRAIEHIRFLSETIGPRPGGTKSEEWASRYVGMQLKSMGYEVEYQPFQVPDQYVGFIESPLSTKRNWQTGAAPNALISTESVTAPLIFVQGGTKLEDIPNEVNGKIVLFERGTTVADYNKQVENAVSKGAKGVLLYSLIGGRGNYGQTFNPRLTKKQSIPVFGLAYAQGNAFKEEIAKKGTTILSLKARHESNLTSLNVIAKKKPKNSTGNEKAVVVSSHYDSVVGAPGANDNASGTGLVLELARAFQNVETDKEIRFIAFGSEETGLLGSDYYVNSLSPKERDRILGVFNADMVATNYDKAKNLYAMMPNGSPNLVTDAALQAGKQLNNDLVLQGKFGSSDHVPFAEVGIPAALFIWMGVDSWNPLIYHIEKVYHTPQDNVFENISPERMKMALEVIGTGVYNTLQQSVTQTEQKAA,not soluble
18,MKKVIIAGNGPSLKEIDYSRLPNDFDVFRCNQFYFEDKYYLGKKCKAVFYNPSLFFEQYYTLKHLIQNQEYETELIMCSNYNQAHLENENFVKTFYDYFPDAHLGYDFFKQLKDFNAYFKFHEIQFNQRITSGVYMCAVAIALGYKEIYLSGIDFYQNGSSYAFDTKQKNLLKLAPNFKNDNSHYIGHSKNTDIKALEFLEKTYKIKLYCLCPNSLLANFIGLAPNLNSNFIIQEKNNYTKDILIPSSEAYGKFSKNINFKKIKIKENIYYKLIKDLLRLPSDIKHYFKGK,soluble
19,MKKVLIANRGEIAVRIIRACRDLGIQTVAIYSEGDKDALHTQIADEAYCVGPTLSKDSYLNIPNILSIATSTGCDGVHPGYGFLAENADFAELCEACQLKFIGPSYQSIQKMGIKDVAKAEMIKANVPVVPGSDGLMKDVSEAKKIAKKIGYPVIIKATAGGGGKGIRVARDEKELETGFRMTEQEAQTAFGNGGLYMEKFIENFRHIEIQIVGDSYGNVIHLGERDCTIQRRMQKLVEEAPSPILDDETRREMGNAAVRAAKAVNYENAGTIEFIYDLNDNKFYFMEMNTRIQVEHPVTEMVTGIDLVKLQLQVAMGDVLPYKQEDIKLTGHAIEFRINAENPYKNFMPSPGKIEQYLAPGGYGVRIESACYTNYTIPPYYDSMVAKLIIHEPTRDEAIMAGIRALSEFVVLGIDTTIPFHIKLLNNDIFRSGKFNTNFLEQNSIMNDEG,soluble
20,MKKVLITGFEPFGGDSKNPTEQIAKYFDRKQIGNAMVYGRVLPVSVKRATIELKRYLEEIKPEIVINLGLAPTYSNITVERIAVNIIDARIPDNDGYQPIDEKIEEDAPLAYMATLPVRAITKTLRDNGIPATISYSAGTYLCNYVMFKTLHFSKIEGYPLKAGFIHVPYTPDQVVNKFFLLGKNTPSMCLEAEIKAIELAVKVSLDYLEKDRDDIKIPL,soluble
21,MKLAVITDSSVYLPQDFVQREDLFILDIDITIDGKTYIEGKNLSLDEFYTKMAASKELPKTSQPNLAELDDLLTNLEEEAYTHVIGLFLSGGISGFHQNIQYLIAEHDKLEIAFPDTKITSSPMGLMVMEALKWGREEIAFEQILVNLQVMIDKTNAFIMVDDLNHLVKGGRLSNGSALLGNLLSIKPILYFTNGRIEVFEKVRTEKKAIKRLISIIDEVTADGSYMVYIIHANARGKAEDLQKRLVDHGYTKNLAIVPFNGVIATHLGEGAIALGAIPII,not soluble
